Reference: patent US20250388702A1 (Dana-Farber, published 2025)

T1: Human HHLA2-mIgG2a fusion protein (human; mouse, UniProt Q9UM44 23-344, limits assumed)
T1 construct: also called HHLA2-Ig; HHLA2-mouse IgG2a; not shown: mutated at IgG2a L235E, E318A, K320A, K322A
T1 sequence: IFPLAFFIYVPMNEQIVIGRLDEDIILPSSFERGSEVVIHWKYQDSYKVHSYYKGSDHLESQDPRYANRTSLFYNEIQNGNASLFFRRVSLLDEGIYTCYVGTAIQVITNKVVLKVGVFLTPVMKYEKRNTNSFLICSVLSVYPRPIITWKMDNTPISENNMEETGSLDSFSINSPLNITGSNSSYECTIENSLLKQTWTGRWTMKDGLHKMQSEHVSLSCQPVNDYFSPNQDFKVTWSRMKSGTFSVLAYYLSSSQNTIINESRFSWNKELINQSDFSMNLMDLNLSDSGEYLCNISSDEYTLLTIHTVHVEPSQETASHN

B1: CD86 (ligand, human, UniProt P42081 24-329, looked up)
single chain: APLKIQAYFNETADLPCQFANSQNQSLSELVVFWQDQENLVLNEVYLGKEKFDSVHSKYMGRTSFDSDSWTLRLHNLQIKDKGLYQCIIHHKKPTGMIRIHQMNSELSVLANFSQPEIVPISNITENVYINLTCSSIHGYPEPKKMSVLLRTKNSTIEYDGVMQKSQDNVTELYDVSISLSVSFPDVTSNMTIFCILETDKTRLLSSPFSIELEDPQPPPDHIPWITAVLPTVIICVMVFCLILWKWKKKKRPRNSYKCGTNTMEREESEQTKKREKIHIPERSDEAQRVFKSSKTSSCDKSDTCF
notes: full length, on the cell surface
B2: KIR2DL3 (receptor, UniProt P43628 22-341, looked up)
chain: HEGVHRKPSLLAHPGPLVKSEETVILQCWSDVRFQHFLLHREGKFKDTLHLIGEHHDGVSKANFSIGPMMQDLAGTYRCYGSVTHSPYQLSAPSDPLDIVITGLYEKPSLSAQPGPTVLAGESVTLSCSSRSSYDMYHLSREGEAHERRFSAGPKVNGTFQADFPLGPATHGGTYRCFGSFRDSPYEWSNSSDPLLVSVTGNPSNSWPSPTEPSSETGNPRHLHVLIGTSVVIILFILLLFFLLHRWCCNKKNAVVMDQEPAGNRTVNREDSDEQDPQEVTYAQLNHCVFTQRKITRPSQRPKTPPTDIIVYTELPNAEP
notes: whole, on cells
B3: KIR2DS3 (receptor, UniProt Q14952 22-304, looked up)
chain: HEGFRRKPSLLAHPGRLVKSEETVILQCWSDVMFEHFLLHREGTFNDTLRLIGEHIDGVSKANFSIGRMRQDLAGTYRCYGSVPHSPYQFSAPSDPLDIVITGLYEKPSLSAQPGPTVLAGESVTLSCSSWSSYDMYHLSTEGEAHERRFSAGPKVNGTFQADFPLGPATQGGTYRCFGSFHDSPYEWSKSSDPLLVSVTGNPSNSWPSPTEPSSKTGNPRHLHVLIGTSVVKLPFTILLFFLLHRWCSDKKNASVMDQGPAGNRTVNREDSDEQDHQEVSYA
notes: whole, on cells
B4: KIR2DS1 (receptor, UniProt Q14954 22-304, looked up)
chain: HEGVHRKPSLLAHPGRLVKSEETVILQCWSDVMFEHFLLHREGMFNDTLRLIGEHHDGVSKANFSISRMKQDLAGTYRCYGSVTHSPYQLSAPSDPLDIVIIGLYEKPSLSAQPGPTVLAGENVTLSCSSRSSYDMYHLSREGEAHERRLPAGTKVNGTFQANFPLGPATHGGTYRCFGSFRDSPYEWSKSSDPLLVSVTGNPSNSWPSPTEPSSETGNPRHLHVLIGTSVVKIPFTILLFFLLHRWCSDKKNAAVMDQEPAGNRTVNSEDSDEQDHQEVSYA
notes: whole, on cells
B5: KIR2DS5 (receptor, UniProt Q14953 22-304, looked up)
chain: HEGFRRKPSLLAHPGPLVKSEETVILQCWSDVMFEHFLLHREGTFNHTLRLIGEHIDGVSKGNFSIGRMTQDLAGTYRCYGSVTHSPYQLSAPSDPLDIVITGLYEKPSLSAQPGPTVLAGESVTLSCSSRSSYDMYHLSREGEAHERRLPAGPKVNRTFQADFPLDPATHGGTYRCFGSFRDSPYEWSKSSDPLLVSVTGNSSNSWPSPTEPSSETGNPRHLHVLIGTSVVKLPFTILLFFLLHRWCSNKKNASVMDQGPAGNRTVNREDSDEQDHQEVSYA
notes: whole, on cells

Target: T1, Human HHLA2-mIgG2a fusion protein
Assay: cell microarray on transfected HEK293 cells, HHLA2-mIgG2a probe, AF647 anti-mouse IgG detection
Description: A library of ˜5500 full length cDNA clones covering more than 3,500 different plasma membrane proteins was arrayed in duplicate across 13 microarray slides (“slide sets”). Human HEK293 cells were grown above the cDNA clones and reverse-transfected. An expression vector (pIRES-hEGFR-IRES-ZsGreen1) was spotted in quadruplicate on every slide and was used to ensure that a minimal threshold of transfection efficiency had been achieved or exceeded on every slide.
Two replicate slides were screened for each of the 13 slide sets. Fluorescent images were analyzed and quantitated (for transfection efficiency) using ImageQuant software (GE). A protein ‘hit’ was defined as duplicate spots showing a raised signal compared to background levels. This was achieved by visual inspection using the images gridded on the ImageQuant software.

Binder | binding result
B1 | no binding (tested: 20 ug/ml)
B2 | no binding (tested: 20 ug/ml)
B3 | no binding (tested: 20 ug/ml)
B4 | no binding (tested: 20 ug/ml)
B5 | no binding (tested: 20 ug/ml)
